# Source: patent US10428140B2, “Anti-EphA4 antibody” (EISAI R&D MANAGEMENT CO., LTD., priority 2015, dated 2019)
# Values joined by “and” are separate entries in the source; they are usually repeats but may differ in a detail not shown here. Identical values can stand only once.
# Key:
# human EphA4 = target: T1, human EphA4 (Homo sapiens, UniProt P54764); assay: Affinity of humanized antibodies by SPR (Biacore T200); assay type: binding; conditions: human EphA4 extracellular region-SEAP-His; for ka / kd: 1:1 binding model; for Kd: KD=kd/ka
# T1 construct: made in house; not restated for the human SEAP-His protein
# T1 sequence (P54764 20-547): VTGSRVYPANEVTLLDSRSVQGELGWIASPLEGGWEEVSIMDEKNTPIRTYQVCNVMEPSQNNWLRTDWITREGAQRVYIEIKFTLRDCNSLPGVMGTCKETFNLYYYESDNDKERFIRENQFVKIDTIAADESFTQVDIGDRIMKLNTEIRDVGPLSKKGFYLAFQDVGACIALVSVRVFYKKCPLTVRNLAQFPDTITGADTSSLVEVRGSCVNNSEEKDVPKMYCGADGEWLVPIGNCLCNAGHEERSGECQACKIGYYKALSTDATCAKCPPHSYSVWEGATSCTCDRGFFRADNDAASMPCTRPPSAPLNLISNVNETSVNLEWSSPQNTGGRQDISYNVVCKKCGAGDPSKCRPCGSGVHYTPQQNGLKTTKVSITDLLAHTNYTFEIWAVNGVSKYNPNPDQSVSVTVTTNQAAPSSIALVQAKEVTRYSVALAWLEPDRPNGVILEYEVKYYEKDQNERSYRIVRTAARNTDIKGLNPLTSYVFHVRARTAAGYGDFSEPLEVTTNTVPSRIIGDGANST
# Method in brief: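 Humanized antibodies captured on protein A chip (antibody A via immobilized rat anti-mouse IgG1) at about 30 to 60 RU in HBS-EP; human EphA4 extracellular region-SEAP-His injected single-cycle at 0.6 to 50 nM, 120 s association, 900 s dissociation. KD = kd/ka from 1:1 binding fits.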
# [1] = target: T2, human EphA4 (binding to human Ephrin A5) (Homo sapiens, UniProt P54764); assay: Human EphA4-human ligand binding inhibition ELISA of humanized antibodies (biotinylated Ephrin A5-Fc); conditions: biotinylated human Ephrin A5-Fc 0.7 nM
# T2 construct: made in house; not restated for the human SEAP-His protein
# T2 sequence (P54764 20-547): as above
# Method in brief: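 Wells coated with anti-alkaline phosphatase antibody captured human EphA4 extracellular region-SEAP-His at 10 nM. Biotinylated human Ephrin A5-Fc (0.7 nM) and serially diluted humanized antibody (0-3000 nM) were added together for 1 h at room temperature. Bound ligand was detected with HRP-streptavidin and TMBZ at A450.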
Molecule,ka (human EphA4) [M⁻¹ s⁻¹],kd (human EphA4),Kd (human EphA4),IC50 [1] [nM]
"135 (antibody, V domains shown, synthetic humanized antibody heavy chain variable region sequence; synthetic humanized antibody light chain variable region sequence) VH: QVQLVQSGSELKKPGASVKVSCKASGYTFTDYSMHWVRQAPGQGLEWMGWINTETGEPTYADDFKGRFVFSLDTSVSTAYLQISSLKAEDTAVYYCARIPLYYYGSRYWYFDVWGQGTTVTVSS VL: EIVMTQSPATLSVSPGERATLSCRASENIYRNLAWYQQKPGQSPRLLIYAATNLADGIPARFSGSGSGTEYTLTISSLQSEDFAVYYCQHFWGTPWTFGQGTKVEIK",320000,0.0004 s⁻¹,1.3 nM,2.5
"159 (antibody, V domains shown, synthetic humanized antibody heavy chain variable region sequence; synthetic humanized antibody light chain variable region sequence) VH: QVQLVQSGSELKKPGASVKVSCKASGYTFTDYSMHWVRQAPGQGLKWMGWINTETGEPTYADDFKGRFVFSLDTSVSTAYLQISSLKAEDTAVYYCARIPLYYYGSRYWYFDVWGQGTTVTVSS VL: DIQMTQSPSSLSASVGDRVTITCRASENIYRNLAWYQQKPGKAPQLLLYAATNLADGVPSRFSGSGSGTDYTLTISSLQPEDFATYYCQHFWGTPWTFGQGTKVEIK",310000,0.00061 s⁻¹,2 nM,2.6
"160 (antibody, V domains shown, synthetic humanized antibody heavy chain variable region sequence; synthetic humanized antibody light chain variable region sequence) VH: QIQLVQSGSELKKPGASVKVSCKASGYTFTDYSMHWVRQAPGQGLKWMGWINTETGEPTYADDFKGRFVFSLDTSVSTAYLQISSLKAEDTAVYYCARIPLYYYGSRYWYFDVWGQGTTVTVSS VL: DIQMTQSPSSLSASVGDRVTITCRASENIYRNLAWYQQKPGKAPQLLLYAATNLADGVPSRFSGSGSGTDYTLTISSLQPEDFATYYCQHFWGTPWTFGQGTKVEIK",320000,0.00061 s⁻¹,1.9 nM,2.2
"67 (antibody, V domains shown, synthetic humanized antibody heavy chain variable region sequence; synthetic humanized antibody light chain variable region sequence) VH: QIQLVQSGSELKKPGASVKVSCKASGYTFTDYSMHWVRQAPGQGLKWMGWINTETGEPTYAQGFTGRFVFSLDTSVSTAYLQISSLKAEDTAVYYCARIPLYYYGSRYWYFDVWGQGTTVTVSS VL: DIQMTQSPSSLSASVGDRVTITCRASENIYRNLAWYQQKPGKAPKLLVYAATNLADGVPSRFSGSGSGTDYTLTISSLQPEDFATYYCQHFWGTPWTFGQGTKVEIK",330000,0.00035 s⁻¹,1.1 nM,4.4

# The remaining molecules from weak to strong by IC50 [1], led by results:
ka (human EphA4) [M⁻¹ s⁻¹],kd (human EphA4),Kd (human EphA4),IC50 [1] [nM],Molecule
400000,0.00078 s⁻¹,2 nM,3.6,"144 (antibody, V domains shown, synthetic humanized antibody heavy chain variable region sequence; synthetic humanized antibody light chain variable region sequence) VH: QVQLVQSGSELKKPGASVKVSCKASGYTFTDYSMHWVRQAPGQGLEWMGWINTETGEPTYADDFKGRFVFSLDTSVSTAYLQISSLKAEDTAVYYCARIPLYYYGSRYWYFDVWGQGTTVTVSS VL: DIQMTQSPSSLSASVGDRVTITCRASENIYRNLAWYQQKPGKAPQLLLYAATNLADGVPSRFSGSGSGTDYTLTISSLQPEDFATYYCQHFWGTPWTFGQGTKVEIK"
270000,0.00031 s⁻¹,1.2 nM,3.1,"132 (antibody, V domains shown, synthetic humanized antibody heavy chain variable region sequence; synthetic humanized antibody light chain variable region sequence) VH: QIQLVQSGSELKKPGASVKVSCKASGYTFTDYSMHWVRQAPGQGLKWMGWINTETGEPTYAQGFTGRFVFSLDTSVSTAYLQISSLKAEDTAVYYCARIPLYYYGSRYWYFDVWGQGTTVTVSS VL: EIVMTQSPATLSVSPGERATLSCRASENIYRNLAWYQQKPGQSPRLLIYAATNLADGIPARFSGSGSGTEYTLTISSLQSEDFAVYYCQHFWGTPWTFGQGTKVEIK"
280000,0.00032 s⁻¹,1.2 nM,3,"134 (antibody, V domains shown, synthetic humanized antibody heavy chain variable region sequence; synthetic humanized antibody light chain variable region sequence) VH: QVQLVQSGSELKKPGASVKVSCKASGYTFTDYSMHWVRQAPGQGLKWMGWINTETGEPTYAQGFTGRFVFSLDTSVSTAYLQISSLKAEDTAVYYCARIPLYYYGSRYWYFDVWGQGTTVTVSS VL: EIVMTQSPATLSVSPGERATLSCRASENIYRNLAWYQQKPGQSPRLLIYAATNLADGIPARFSGSGSGTEYTLTISSLQSEDFAVYYCQHFWGTPWTFGQGTKVEIK"
300000,0.00032 s⁻¹,1.1 nM,3,"133 (antibody, V domains shown, synthetic humanized antibody heavy chain variable region sequence; synthetic humanized antibody light chain variable region sequence) VH: QVQLVQSGSELKKPGASVKVSCKASGYTFTDYSMHWVRQAPGQGLEWMGWINTETGEPTYAQGFTGRFVFSLDTSVSTAYLQISSLKAEDTAVYYCARIPLYYYGSRYWYFDVWGQGTTVTVSS VL: EIVMTQSPATLSVSPGERATLSCRASENIYRNLAWYQQKPGQSPRLLIYAATNLADGIPARFSGSGSGTEYTLTISSLQSEDFAVYYCQHFWGTPWTFGQGTKVEIK"
330000,0.00034 s⁻¹,1 nM,2.9,"76 (antibody, V domains shown, synthetic humanized antibody heavy chain variable region sequence; synthetic humanized antibody light chain variable region sequence) VH: QVQLVQSGSELKKPGASVKVSCKASGYTFTDYSMHWVRQAPGQGLKWMGWINTETGEPTYAQGFTGRFVFSLDTSVSTAYLQISSLKAEDTAVYYCARIPLYYYGSRYWYFDVWGQGTTVTVSS VL: DIQMTQSPSSLSASVGDRVTITCRASENIYRNLAWYQQKPGKAPKLLVYAATNLADGVPSRFSGSGSGTDYTLTISSLQPEDFATYYCQHFWGTPWTFGQGTKVEIK"
380000,0.00042 s⁻¹,1.2 nM,2.9,"75 (antibody, synthetic humanized antibody heavy chain variable region sequence; synthetic humanized antibody light chain variable region sequence; synthetic antibody constant region sequence) VH: QVQLVQSGSELKKPGASVKVSCKASGYTFTDYSMHWVRQAPGQGLEWMGWINTETGEPTYAQGFTGRFVFSLDTSVSTAYLQISSLKAEDTAVYYCARIPLYYYGSRYWYFDVWGQGTTVTVSS VL: DIQMTQSPSSLSASVGDRVTITCRASENIYRNLAWYQQKPGKAPKLLVYAATNLADGVPSRFSGSGSGTDYTLTISSLQPEDFATYYCQHFWGTPWTFGQGTKVEIK ASTKGPSVFPLAPSSKSTSGGTAALGCLVKDYFPEPVTVSWNSGALTSGVHTFPAVLQSSGLYSLSSVVTVPSSSLGTQTYICNVNHKPSNTKVDKRVEPKSCDKTHTCPPCPAPPAAAPSVFLFPPKPKDTLMISRTPEVTCVVVDVSHEDPEVQFNWYVDGVEVHNAKTKPREEQFNSTFRVVSVLTVVHQDWLNGKEYKCKVSNKGLPAPIEKTISKTKGQPREPQVYTLPPSREEMTKNQVSLTCLVKGFYPSDIAVEWESNGQPENNYKTTPPMLDSDGSFFLYSKLTVDKSRWQQGNVFSCSVMHEALHNHYTQKSLSLSPG"
310000,0.00061 s⁻¹ and 0.00056 s⁻¹,1.9 nM and 1.6 nM,2.8,"158 (antibody, V domains shown, synthetic humanized antibody heavy chain variable region sequence; synthetic humanized antibody light chain variable region sequence) VH: QVQLVQSGSELKKPGASVKVSCKASGYTFTDYSMHWVRQAPGQGLKWMGWINTETGEPTYAQGFTGRFVFSLDTSVSTAYLQISSLKAEDTAVYYCARIPLYYYGSRYWYFDVWGQGTTVTVSS VL: DIQMTQSPSSLSASVGDRVTITCRASENIYRNLAWYQQKPGKAPQLLLYAATNLADGVPSRFSGSGSGTDYTLTISSLQPEDFATYYCQHFWGTPWTFGQGTKVEIK"
